The text below walks through data of patent US20060093553A1, “Cd26-based therapies for cancers and immune disease” (priority 2002, published 2006).

Common to all, as to format: cell-based, Human
One experiment has as its system CD86 mRNA in monocytes. The experiment in a line: Relative quantitative RT-PCR assay. As to conditions: monocytes with TT 16 h then sCD26 0.5 μg/ml 24 h.
Experiment [1] deals with PBMC subpopulations (CD3, CD14, CD19, CD56). The experiment in a line: sCD26-OG incorporation into PBMC subpopulations (flow cytometry). As to conditions: 24 h, presence or absence of TT; FIG. 9. How it is done: Assessment of the PBMC population that takes up sCD26-OG was performed with PE-conjugated anti-CD3, anti-CD14, anti-CD19, and anti-CD56 mAbs (10 μg/ml). For these experiments, 1×10^6 PBMC/well were incubated in standard medium containing sCD26-OG for 24 h with or without preincubation with TT. Cells were then washed twice in ice-cold PBS, followed by incubation for 2 min in acidic PBS (pH 3.0) to strip any sCD26-OG attached to the cell surface. Cells were subsequently washed in ice-cold PBS and were incubated with mouse Ig isotypes (1 μg/ml) to block nonspecific binding; this was followed by reaction with PE-conjugated mabs.
(§1) Flow cytometric analysis of 10,000 viable cells was conducted on FACSCalibur (BD Biosciences, Mountain View, Calif.). Each experiment was repeated at least three times, and the results were provided in the form of a histogram of a representative experiment, or increased mean percent±SE fluorescent intensity compared with control or untreated cells.
(In general: In flow cytometry, cells or beads pass a laser one at a time.)

In experiment [2] the test system is CD86 expression on monocytes. The experiment can be described thus: Surface expression on monocytes (flow cytometry). As to conditions: after TT and sCD26 stimulation; FIG. 13. As to the method:
In studies assessing the expression of CD80, CD86, and HLA-DR on purified monocytes (0.5×10^6 monocytes/well), monocytes were preincubated with or without TT (0.5 μg/ml) for 16 h. Following incubation with sCD26 (0.5 μg/ml) for 24 h, FITC-conjugated CD80, CD86, and HLA-DR mAbs (10 μg/ml) were used with PE-conjugated anti-CD14 (10 μg/ml) to gate exclusively on the monocyte population. In experiments assessing the effect of M6P on cellular uptake of sCD26, purified monocytes (0.5×10^6 monocytes/well) were incubated with the appropriate concentration of M6P in the presence or absence of sCD26-OG for 24 h in standard medium. Cells were then washed twice in ice-cold PBS, followed by incubation for 2 min in acidic PBS (pH 3.0) to strip any sCD26-OG attached to the cell surface. Cells were washed in ice-cold PBS and were incubated with mouse Ig isotypes (1 μg/ml) to block nonspecific binding; this was followed by reaction with PE-conjugated anti-CD14 (10 μg/ml) to gate exclusively on monocyte population.
as §1

A further experiment has as its system PBMC. The experiment in a line: TT-induced proliferation of PBMC, time-course ([3H]TdR incorporation). The conditions noted are these: DPPIV-deficient mutant sCD26 in PBMC time-course. The source says:
Human PBMC, collected from healthy adult volunteers who were immunized with TT within two years before donation, were isolated by centrifugation on Ficoll/Paque (Amersham Pharmacia Biotech, Piscataway, N.J.). PBMC were directly used for the time-course studies. For the reconstitution studies, PBMC were further purified into T cell fractions and APC fractions. To obtain a highly purified T cell population, PBMC were separated into an E rosette-positive (E^+) population and were used as resting T cells as determined by flow cytometric analysis (FACSCalibur; Nippon BD Biosciences, Tokyo, Japan) using an FITC-labeled anti-CD3 mAb (BD PharMingen, San Diego, Calif.) with purity being >95%. To obtain APC, an E rosette-negative (E^−) population was adhered to plastic plates for 4 h at 37° C., and adherent cells were used as APC. Monocytes were either purified by a flow cytometer on the basis of PE-labeled anti-CD14 mAb (BD PharMingen)-oriented parameter, or by negative selection through the use of immunomagnetic beads coated with an anti-CD3, CD7, CD19, CD45RA, CD56, and IgE mAb Qailtenyi Biotec, Auburn, Calif.) with purity being >95%. […]
T-cell proliferation induced by APC was measured by [^3H]TdR (ICN Radiochemicals, Irvine, Calif.) uptake. […]

The next experiment relates to monocytes. The experiment in a line: Confocal laser microscopy of sCD26 uptake. How it is done: For fluorescent microscopy studies of uptake of sCD26 by monocytes; purified monocytes were incubated with sCD26-OG (1 μg/ml) with or without preincubation with. TT (0.5 μg/ml). Cells were then washed in ice-cold PBS twice and were incubated in acidic PBS (pH 3.0) to strip any sCD26-OG attached to the cell surface. The cells were then attached to microslide glass (Matsunami Glass, Tokyo, Japan) and fixed with 3% paraformaldehyde in PBS for 15 min at room temperature. Cells were blocked with mouse Ig isotypes (1 μg/ml) for 30 min at 4° C., followed by incubation with biotinylated anti-CD14 (10 μg/ml) for 30 min at 4° C., then washed with ice-cold PBS twice and incubated with streptavidin-conjugated Texas red conjugate (1/200; Beckman Coulter) for 30 min at 4° C. In studies of sCD26 uptake via M6P/IGF-IIR on monocytes, purified monocytes were incubated with or without TT for 16 h, and sCD26-OG and M6P/IGF-IIR-red were added to the culture well after being blocked with mouse Ig isotypes (1 μg/ml) for 30 min at 4° C. Cells were then incubated for 30 min at 4° C. For detection of cell surface colocalization, cells were washed in ice-cold PBS twice and were attached to microslide glass, followed by fixation with 3% paraformaldehyde in PBS for 15 min at room temperature. […]

Experiment [3] concerns monocytes and purified T cells. The experiment in a line: Reconstitution/fixation study: T cell proliferation with preincubated monocytes ([3H]TdR). The conditions noted are these: TT-pulsed monocytes fixed with 0.05% glutaraldehyde before or after sCD26; FIGS. 12A, 12B. How it is done: All cells were preincubated in the standard medium for 24 h to minimize the risk of potential interference from sCD26 present in human serum (Tanaka et al., 1993). In these studies, cells were incubated in 96-well plates (200 μl/well; Falcon, Franklin Lakes, N.J.). For the time-course study, 1.0×10^5 PBMC were incubated with 0.5 μg/ml TT for 16 h. Then, 0.5 μg/ml sCD26 was added to the well and was incubated for 0, 6, 12, 24, 48, 72, and 96 h. The day when the first sCD26 was added to the culture well was defined as day 0 of culture. All assays in proliferation experiments were performed on day 7 of culture after cells were incubated at 37° C. in a 5% CO2 humidified atmosphere. For the reconstitution study, 0.5×10^6 of monocytes were preincubated with TT, at a concentration of 0.5 μg/ml with different concentrations of sCD26 for 24 h. Monocytes were washed with PBS, and then 1×10^4/well of preincubated monocytes were subjected to the assay with 1×10^5/well of purified T cells from the same donor as the prepared monocytes. […]
T-cell proliferation induced by APC was measured by [^3H]TdR (ICN Radiochemicals, Irvine, Calif.) uptake. Seven-day-incubated cells were pulsed with 1 μCi/well of [^3H]TdR 8 h before harvesting onto a glass-fiber filter (Wallac, Turk, Finland), and the incorporated radioactivity was quantified by a liquid scintillation counter (Wallac).

B1: sCD26/DPPIV^−: mutant sCD26 without DPPIV activity, Ser630 replaced by Ala at the active site (protein)
chain: MKGLLGAAALVTIITVPVVLLNKGTDDATADSRKTYTLTDYLKNTYRLKLYSLRWISDHEYLYKQENNILVFNAEYGNSSVFLENSTFDEFGHSINDYSISPDGQFILLEYNYVKQWRHSYTASYDIYDLNKRQLITEERIPNNTQWVTWSPVGHKLAYVWNNDIYVKIEPNLPSYRITWTGKEDIIYNGITDWVYEEEVFSAYSALWWSPNGTFLAYAQFNDTEVPLIEYSFYSDESLQYPKTVRVPYPKAGAVNPTVKFFVVNTDSLSSVTNATSIQITAPASMLIGDHYLCDVTWATQERISLQWLRRIQNYSVMDICDYDESSGRWNCLVARQHIEMSTTGWVGRFRPSEPHFTLDGNSFYKIISNEEGYRHICYFQIDKKDCTFITKGTWEVIGIEALTSDYLYYISNEYKGMPGGRNLYKIQLSDYTKVTCLSCELNPERCQYYSVSFSKEAKYYQLRCSGPGLPLYTLHSSVNDKGLRVLEDNSALDKMLQNVQMPSKKLDFIILNETKFWYQMILPPHFDKSKKYPLLLDVYAGPCSQKADTVFRLNWATYLASTENIIVASFDGRGSGYQGDKIMHAINRRLGTFEVEDQIEAARQFSKMGFVDNKRIAIWGWAYGGYVTSMVLGSGSGVFKCGIAVAPVSRWEYYDSVYTERYMGLPTPEDNLDHYRNSTVMSRAENFKQVEYLLIHGTADDNVHFQQSAQISKALVDVGVDFQAMWYTDEDHGIASSTAHQHIYTHMSHFIKQCFSLP
On to B1, for which the “CD86 mRNA levels (RT-PCR)” value was “did not demonstrate enhanced CD86 mRNA levels” in the experiment with CD86 mRNA in monocytes and “increased mRNA levels” with CD86 mRNA in monocytes (listed as sCD26/DPPIV^+). The “PBMC population that takes up sCD26” value in experiment [1] was “preferentially taken up by CD14-positive monocytes”. Also, the “CD86 expression on monocytes” value in experiment [2] is on record as “did not affect CD86 expression”. Besides, the “enhancing effect of TT-induced T cell proliferation” value in the experiment on PBMC is reported as “not observed”. Further, the “intracellular detection of sCD26 in monocytes” value in the experiment with monocytes (36 h after incubation of monocytes with sCD26) is recorded as “no longer detectable intracellularly”. In addition, the “uptake by monocytes (confocal microscopy)” value in the experiment with monocytes (sCD26-OG 1 μg/ml) is recorded as “clearly taken up by monocytes”. The “enhanced T cell proliferation, fixation study” value in experiment [3] is given as “seen only when the monocytes were incubated with sCD26/DPPIV^+ before fixation”.
